What all share (assay): HPLC (MonoQ) product analysis, fit to substrate inhibition model
One series has as its target T1, TbITPA (Trypanosoma brucei, UniProt Q389X7).
T1 construct: gene Tb10.6k15.0290; homodimer 48 kDa by gel filtration
T1 sequence (Q389X7 87-287): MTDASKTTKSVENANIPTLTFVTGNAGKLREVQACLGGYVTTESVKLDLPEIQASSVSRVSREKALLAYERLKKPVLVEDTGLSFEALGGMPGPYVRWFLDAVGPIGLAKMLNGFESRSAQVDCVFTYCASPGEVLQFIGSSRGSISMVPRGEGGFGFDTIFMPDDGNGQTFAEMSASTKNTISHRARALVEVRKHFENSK
It is filed as biochemical. The settings on record: substrate inhibition constant; 5 mM MgCl2, 20 mM Tris-HCl pH 7.5, 0.1 mg/mL BSA, 1 mM DTT, 25 °C. The source says:
HPLC (MonoQ) product analysis, fit to substrate inhibition model on TbITPA

Substrate in series [1]: NC(=O)c1ncn([C@@H]2O[C@H](CO[P@@](=O)(O)O[P@](=O)(O)OP(=O)(O)O)[C@@H](O)[C@H]2O)n1
It is filed as biochemical, Trypanosoma brucei. The conditions noted are these: 5 mM MgCl2, 20 mM Tris-HCl pH 7.5, 0.1 mg/mL BSA, 1 mM DTT, 25 °C.

Substrate in series [2]: O=P(O)(O)OP(=O)(O)OP(=O)(O)OC[C@H]1O[C@@H](n2cnc3c(O)ncnc32)[C@H](O)[C@@H]1O
The class given is biochemical, Trypanosoma brucei. The settings on record: 5 mM MgCl2, 20 mM Tris-HCl pH 7.5, 0.1 mg/mL BSA, 1 mM DTT, 25 °C.

Substrate in series [3]: O=c1[nH]c(=O)c2ncn([C@@H]3O[C@H](COP(=O)(O)OP(=O)(O)OP(=O)(O)O)[C@@H](O)[C@H]3O)c2[nH]1
The class given is biochemical, Trypanosoma brucei. The settings on record: 5 mM MgCl2, 20 mM Tris-HCl pH 7.5, 0.1 mg/mL BSA, 1 mM DTT, 25 °C.

Substrate in series [4]: O=c1[nH]cnc2c1ncn2[C@H]1C[C@H](O)[C@@H](COP(=O)(O)OP(=O)(O)OP(=O)(O)O)O1
It is filed as biochemical, Trypanosoma brucei. The conditions noted are these: 5 mM MgCl2, 20 mM Tris-HCl pH 7.5, 0.1 mg/mL BSA, 1 mM DTT, 25 °C.

Consider `O=c1[nH]cnc2c1ncn2[C@H]1C[C@H](O)[C@@H](COP(=O)(O)OP(=O)(O)OP(=O)(O)O)O1` [dITP], for which the “Ki (μM)^a” value at TbITPA is 98 ± 42 µM.
Turning to `O=c1[nH]cnc2c1ncn2[C@@H]1O[C@H](COP(=O)(O)OP(=O)(O)OP(=O)(O)O)[C@@H](O)[C@H]1O` [ITP], at TbITPA, the “Ki (μM)^a” value was 824 ± 275 µM.
Turning to `O=c1[nH]c(=O)c2ncn([C@@H]3O[C@H](COP(=O)(O)OP(=O)(O)OP(=O)(O)O)[C@@H](O)[C@H]3O)c2[nH]1` [XTP], the “Ki (μM)^a” value on TbITPA stood at 951 ± 220 µM.

B1: TbITPA (Trypanosoma brucei brucei TREU927) (protein)
chain: T1 sequence (Q389X7 87-287)
notes: homodimer 48 kDa by gel filtration
With B1, the Km (usually the substrate concentration at which the rate is half of its maximum) in series [1] came out at 75 ± 24 µM; in series [2], 17 ± 3 µM; in series [3] it was 27 ± 4 µM; in series [4] it was 44 ± 18 µM. For the same molecule, the kcat (as a rule, the maximal rate divided by the concentration of active sites) in series [1] is 100 ± 14 s⁻¹; in series [2], 59 ± 5 s⁻¹; in series [3] it was 37 ± 2 s⁻¹; in series [4] it was 280 ± 74 s⁻¹. Besides, the kcat/Km (in general, the turnover number divided by the Michaelis constant) turned out to be 3.5e+06 M⁻¹ s⁻¹ in series [2], 1.4e+06 M⁻¹ s⁻¹ in series [3] and 6.4e+06 M⁻¹ s⁻¹ in series [4].

Source of the values: PMC9016069, “Inosine triphosphate pyrophosphatase from Trypanosoma brucei cleanses cytosolic pools from deaminated nucleotides” (Scientific Reports, 2022).
